From patent publication US8936806B2, “Periostin induces proliferation of cardiomyocytes and promotes cardiac regeneration” (Children's Medical Center Corporation, priority 2007, dated 2015)

Tested on: primary neonatal rat ventricular cardiomyocytes
Assay: Cell cycle markers (Ki-67, phosphorylated Rb, cyclin A) in neonatal cardiomyocytes
Assay type: cell-based
From the text: Primary neonatal rat ventricular cardiomyocytes were isolated using the Neomyts kit (Cellutron, Highland Park, N.J.), seeded at a density of 10^5 cells/cm^2 onto gelatin-coated cover slips, stimulated for 3 days, and labeled with BrdU for the terminal 2 days. Primary adult ventricular cardiomyocytes were isolated from male (300 gm) Wistar rats (Charles River Laboratories) and maintained as described (Engel, F. B. et al. p38 MAP kinase inhibition enables proliferation of adult mammalian cardiomyocytes. Genes Dev 19, 1175-87 (2005)). Adult cardiomyocytes were stimulated daily for 9 days and labeled with 30 μM BrdU for the terminal 3 days. Cardiomyocytes were stimulated with periostin (500 ng/mL) and FGF (100 ng/mL). Inhibiting antibodies were added at a concentration of 10 μg/mL, cRGD at 10 μM, U0126 at 10 μM, PD98059 at 1 μM, LY294002 at 10 μM, and Wortmannin at 0.1 μM 30 min prior to stimulation. The vehicle used to dissolve factors or chemicals was added to unstimulated samples, which were then processed together with the test samples.
DNA-synthesis was analyzed by visualization of BrdU uptake and cytokinesis was determined by detection of the cleavage furrow and the midbody with an antibody against aurora B kinase as described (Engel, F. B. et al. p38 MAP kinase inhibition enables proliferation of adult mammalian cardiomyocytes. Genes Dev 19, 1175-87 (2005)). Signals were visualized with secondary antibodies conjugated to Alexa 488, Alexa 546, Alexa 594, and Alexa 647 (Invitrogen). Nuclei were visualized with 4′,6′-diamidino-2-phenylindole (DAPI, Invitrogen). For image acquisition, the value for γ was set at 1 and the lookup table settings were linear.

B1: periostin: Recombinant periostin, purified from HEK293 cells expressing the full-length human cDNA; secreted protein of 834 amino acids (Seq ID. No. 1) (protein, listed as Homo sapiens)
chain: MIPFLPMFSLLLLLIVNPINANNHYDKILAHSRIRGRDQGPNVCALQQILGTKKKYFSTCKNWYKKSICGQKTTVLYECCPGYMRMEGMKGCPAVLPIDHVYGTLGIVGATTTQRYSDASKLREEIEGKGSFTYFAPSNEAWDNLDSDIRRGLESNVNVELLNALHSHMINKRMLTKDLKNGMIIPSMYNNLGLFINHYPNGVVTVNCARIIHGNQIATNGVVHVIDRVLTQIGTSIQDFIEAEDDLSSFRAAAITSDILEALGRDGHFTLFAPTNEAFEKLPRGVLERFMGDKVASEALMKYHILNTLQCSESIMGGAVFETLEGNTIEIGCDGDSITVNGIKMVNKKDIVTNNGVIHLIDQVLIPDSAKQVIELAGKQQTTFTDLVAQLGLASALRPDGEYTLLAPVNNAFSDDTLSMVQRLLKLILQNHILKVKVGLNELYNGQILETIGGKQLRVFVYRTAVCIENSCMEKGSKQGRNGAIHIFREIIKPAEKSLHEKLKQDKRFSTFLSLLEAADLKELLTQPGDWTLFVPTNDAFKGMTSEEKEILIRDKNALQNIILYHLTPGVFIGKGFEPGVTNILKTTQGSKIFLKEVNDTLLVNELKSKESDIMTTNGVIHVVDKLLYPADTPVGNDQLLEILNKLIKYIQIKFVRGSTFKEIPVTVYTTKIITKVVEPKIKVIEGSLQPIIKTEGPTLTKVKIEGEPEFRLIKEGETITEVIHGEPIIKKYTKIIDGVPVEITEKETREERIITGPEIKYTRISTGGGETEETLKKLLQEEVTKVTKFIEGGDGHLFEDEEIKRLLQGDTPVRKLQANKKVQGSRRRLREGRSQ
increase of cardiomyocytes expressing cyclin A: 11 fold | increase of cardiomyocytes with phosphorylated Rb: 12 fold | increase of proliferating cardiomyocytes (Ki-67): 4 fold
